Results taken from patent US20180193423A1 (LONGEVITY BIOTECH, published 2018).
Primed or numbered codes have the meaning given here. Where no end group is shown, it is not given here. [ ]: non-standard residue; d: D form. APC″ = 3-aminopyrrolidine-4-carboxylic acid (cyclic β-amino acid); ACPC″ = 2-aminocyclopentanecarboxylic acid (x in the sequences); APC = 3-aminopyrrolidine-4-carboxylic acid; ACPC = 2-aminocyclopentanecarboxylic acid; β3hY = N[C@H](CC(=O)O)Cc1ccc(O)cc1; β3hT = C[C@@H](O)[C@H](N)CC(=O)O; β3hQ = NC(=O)CC[C@H](N)CC(=O)O; β3hL = CC(C)C[C@H](N)CC(=O)O; β3hK = NCCCC[C@H](N)CC(=O)O; β3hV = CC(C)[C@H](N)CC(=O)O; Aib = CC(C)(N)C(=O)O; βAla = NCCC(=O)O

T1: VPAC2 receptor (UniProt P41587 24-438, limits assumed)
T1 sequence (looked up): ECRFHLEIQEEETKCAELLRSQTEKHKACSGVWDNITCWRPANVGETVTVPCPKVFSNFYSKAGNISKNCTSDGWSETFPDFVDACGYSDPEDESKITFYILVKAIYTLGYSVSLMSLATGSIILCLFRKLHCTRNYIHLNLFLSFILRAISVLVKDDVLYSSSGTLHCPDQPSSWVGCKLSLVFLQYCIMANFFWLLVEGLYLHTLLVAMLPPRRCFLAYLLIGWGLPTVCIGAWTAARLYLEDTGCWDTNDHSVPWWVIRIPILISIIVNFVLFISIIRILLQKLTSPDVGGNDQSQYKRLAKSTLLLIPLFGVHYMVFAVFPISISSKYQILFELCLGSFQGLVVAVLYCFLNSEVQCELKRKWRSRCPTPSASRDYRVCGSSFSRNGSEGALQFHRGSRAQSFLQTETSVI

T2: VPAC1 receptor (UniProt P32241 31-457, limits assumed)
T2 sequence (looked up): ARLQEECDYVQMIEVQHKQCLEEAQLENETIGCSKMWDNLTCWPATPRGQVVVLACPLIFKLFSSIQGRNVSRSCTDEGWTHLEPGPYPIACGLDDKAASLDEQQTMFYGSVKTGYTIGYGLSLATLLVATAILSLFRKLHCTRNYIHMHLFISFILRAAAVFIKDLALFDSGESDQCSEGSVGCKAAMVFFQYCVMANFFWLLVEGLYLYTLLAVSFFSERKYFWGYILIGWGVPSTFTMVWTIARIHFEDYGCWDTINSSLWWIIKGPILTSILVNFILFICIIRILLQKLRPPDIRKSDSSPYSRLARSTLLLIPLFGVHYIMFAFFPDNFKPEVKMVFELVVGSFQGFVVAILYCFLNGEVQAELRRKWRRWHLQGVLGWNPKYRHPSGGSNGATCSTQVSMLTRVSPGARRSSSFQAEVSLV

B1: LBT-V215 (peptide)
peptide: Ac-H[ACPC″]DA[β3hV]FTENYTK[β3hL]RKQLAA[APC″]KY[ACPC″]NDL[β3hK]KG[βAla]T
modifications: not fully specified (C-terminus); printed as Ac-HxDAvFTENYTKlRKQLAAzKYxNDLkKGgT
B2: LBT-V211 (peptide)
peptide: Ac-H[ACPC]DA[β3hV]FTENYTKLRKQ[β3hL]AA[APC]KY[ACPC]NDL[β3hK]KG[βAla]T
modifications: not fully specified (C-terminus); printed as Ac-HxDAvFTENYTKLRKQlAAzKYxNDLkKGgT
B3: LBT-V213 (peptide)
peptide: Ac-H[ACPC]DA[β3hV]FTENYTKLR[β3hK]QLAA[APC]KY[ACPC]NDL[β3hK]KG[βAla]T
modifications: not fully specified (C-terminus); printed as Ac-HxDAvFTENYTKLRkQLAAzKYxNDLkKGgT
B4: LBT-V208 (peptide)
peptide: Ac-H[ACPC]DA[ACPC]FTENYTKLRKQLAA[APC]KY[ACPC]NDL[β3hK]KG[βAla]T
modifications: not fully specified (C-terminus); printed as Ac-HxDAxFTENYTKLRKQLAAzKYxNDLkKGgT
B5: LBT-V218 (peptide)
peptide: Ac-H[ACPC″]DA[ACPC″]FTE[ACPC″][β3hY]TKLRK[β3hQ]LAA[APC″]KY[ACPC″]NDL[β3hK]KG[βAla]T
modifications: not fully specified (C-terminus); printed as Ac-HxDAxFTExyTKLRKqLAAzKYxNDLkKGgT
B6: LBT-V203 (peptide)
peptide: Ac-HSDAVFTENYTKLRKQ[ACPC]AA[APC]KYL[ACPC]DL[β3hK]KGGT
modifications: not fully specified (C-terminus); printed as Ac-HSDAVFTENYTKLRKQxAAzKYLxDLkKGGT
B7: LBT-V202 (peptide)
peptide: Ac-HSDAVFTENYTKLRKQLAA[APC]KY[ACPC]NDL[β3hK]KG[βAla]T
modifications: not fully specified (C-terminus); printed as Ac-HSDAVFTENYTKLRKQLAAzKYxNDLkKGgT
B8: LBT-V207 (peptide)
peptide: Ac-H[ACPC]DAVFTENYTKLRKQLAA[APC]KY[ACPC]NDL[β3hK]KG[βAla]T
modifications: not fully specified (C-terminus); printed as Ac-HxDAVFTENYTKLRKQLAAzKYxNDLkKGgT
B9: LBT-V205 (peptide)
peptide: Ac-H[Aib]DA[β3hV]FTENYTKLRKQLAA[APC]KY[ACPC]NDL[β3hK]KG[βAla]T
modifications: not fully specified (C-terminus); printed as Ac-HBDAvFTENYTKLRKQLAAzKYxNDLkKGgT
B10: LBT-V204 (peptide)
peptide: Ac-H[Aib]DAVFTENYTKLRKQLAA[APC]KY[ACPC]NDL[β3hK]KG[βAla]T
modifications: not fully specified (C-terminus); printed as Ac-HBDAVFTENYTKLRKQLAAzKYxNDLkKGgT
B11: LBT-V102 (peptide)
peptide: H[ACPC]DAVFTDNY[β3hT]RLR[β3hK]QLA[β3hV]KKY[β3hL]NAI[β3hL]N
modifications: not fully specified (C-terminus); printed as HxDAVFTDNYtRLRkQLAvKKYlNAIlN

The binders below were run against T1, VPAC2 receptor (assay: cell-based or functional assay).

EC50 vpac2 (Molar), cell-based cAMP assay	Binder
1.33 nM	B1
1.26 nM	B2
1.27 nM	B3
0.646 nM	B4
1.02 nM	B5
0.18 nM	B6
0.963 nM	B7
0.593 nM	B8
0.816 nM	B9
0.529 nM	B10

What follows are binders tested against T2, VPAC1 receptor (assay: cell-based or functional assay).

EC 50 vpac1 (Molar), cell-based cAMP assay	Binder
1420 nM	B1
> 1000 nM	B2
293 nM	B3
133 nM	B4
> 1000 nM	B5
218 nM	B6
> 1000 nM	B7
> 1000 nM	B8
> 1000 nM	B9
516 nM	B10

Biological target: T1, VPAC2 receptor
Experiment: cell-based or functional assay
Remark: another data set of the same source

EC50 vpac2 (Molar), cell-based cAMP assay	Binder
4900 nM	B11

Biological target: T2, VPAC1 receptor
Experiment: cell-based or functional assay
Remark: another data set of the same source

EC 50 vpac1 (Molar), cell-based cAMP assay	Binder
5.66 nM	B11
